T1: human FcγRIIb extracellular domain with C-terminal His tag (human, UniProt P31994 43-217)
T1 construct: extracellular domain; also called FcgRIIb; 2b; not shown: His tag attached to the C terminus
T1 sequence (looked up): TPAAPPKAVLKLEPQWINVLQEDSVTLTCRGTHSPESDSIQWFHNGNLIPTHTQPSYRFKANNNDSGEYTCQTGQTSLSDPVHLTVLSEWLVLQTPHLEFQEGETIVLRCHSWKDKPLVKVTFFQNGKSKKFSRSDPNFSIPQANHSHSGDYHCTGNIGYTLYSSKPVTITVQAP

B1: GpH7-B3 variant A327_09D/GpL16-k0 (antibody, human IgG1, kappa)
heavy: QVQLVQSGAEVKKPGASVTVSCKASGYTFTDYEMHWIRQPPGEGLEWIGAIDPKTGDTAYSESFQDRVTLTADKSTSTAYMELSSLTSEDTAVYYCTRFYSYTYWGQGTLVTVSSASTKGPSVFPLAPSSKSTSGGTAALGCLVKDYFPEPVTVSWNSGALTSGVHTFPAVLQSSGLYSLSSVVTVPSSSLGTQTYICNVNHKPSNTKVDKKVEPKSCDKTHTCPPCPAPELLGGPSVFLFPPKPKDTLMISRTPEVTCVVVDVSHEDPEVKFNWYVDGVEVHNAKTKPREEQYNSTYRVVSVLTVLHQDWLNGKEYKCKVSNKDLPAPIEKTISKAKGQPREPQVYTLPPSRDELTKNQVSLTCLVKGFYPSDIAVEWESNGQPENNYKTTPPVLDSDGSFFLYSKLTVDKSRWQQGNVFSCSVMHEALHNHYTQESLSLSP
light: DIVMTQSPLSLPVTPGEPASISCQASESLVHSNRNTYLHWYLQKPGQSPQLLIYKVSNRFSGVPDRFSGSGSGTDFTLKISRVEAEDVGVYYCSQNTHVPPTFGQGTKVEIERTVAAPSVFIFPPSDEQLKSGTASVVCLLNNFYPREAKVQWKVDNALQSGNSQESVTEQDSKDSTYSLSSTLTLSKADYEKHKVYACEVTHQGLSSPVTKSFNRGEC
notes: also called Ho Ab A327_09D
B2: GpH7-B3 variant S337_08L/GpL16-k0 (antibody, human IgG1, kappa)
heavy: not shown
light: B1 light
notes: also called Ho Ab S337_08L
B3: GpH7-B3 variant K334_13S/GpL16-k0 (antibody, human IgG1, kappa)
heavy: not shown
light: B1 light
notes: also called Ho Ab K334_13S
B4: GpH7-B3 variant I336_06M/GpL16-k0 (antibody, human IgG1, kappa)
heavy: not shown
light: B1 light
notes: also called Ho Ab I336_06M
B5: GpH7-B3 variant V266_08L/GpL16-k0 (antibody, human IgG1, kappa)
heavy: not shown
light: B1 light
notes: also called Ho Ab V266_08L
B6: GpH7-B3 variant H268_18N/GpL16-k0 (antibody, human IgG1, kappa)
heavy: not shown
light: B1 light
notes: also called Ho Ab H268_18N
B7: GpH7-B3 variant I336_10E/GpL16-k0 (antibody, human IgG1, kappa)
heavy: not shown
light: B1 light
notes: also called Ho Ab I336_10E
B8: GpH7-B3 variant K334_19Q/GpL16-k0 (antibody, human IgG1, kappa)
heavy: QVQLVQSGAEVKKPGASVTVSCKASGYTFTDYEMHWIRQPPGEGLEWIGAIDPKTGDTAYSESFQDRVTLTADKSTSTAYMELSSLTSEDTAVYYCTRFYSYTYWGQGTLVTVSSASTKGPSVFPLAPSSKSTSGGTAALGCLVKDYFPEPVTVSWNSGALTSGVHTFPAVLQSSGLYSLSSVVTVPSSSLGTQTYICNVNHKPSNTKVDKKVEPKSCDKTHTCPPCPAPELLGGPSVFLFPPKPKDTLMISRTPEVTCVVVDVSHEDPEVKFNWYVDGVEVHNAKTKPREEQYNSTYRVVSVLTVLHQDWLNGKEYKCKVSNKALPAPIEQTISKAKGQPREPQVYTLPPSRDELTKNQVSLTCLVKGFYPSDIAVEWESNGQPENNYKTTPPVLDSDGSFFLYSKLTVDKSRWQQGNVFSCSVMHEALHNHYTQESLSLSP
light: B1 light
notes: also called Ho Ab K334_19Q
B9: GpH7-B3 variant S337_07I/GpL16-k0 (antibody, human IgG1, kappa)
heavy: not shown
light: B1 light
notes: also called Ho Ab S337_07I
B10: GpH7-B3 variant L234_20W/GpL16-k0 (antibody, human IgG1, kappa)
heavy: not shown
light: B1 light
notes: also called Ho Ab L234_20W
B11: GpH7-B3 variant K326_07I/GpL16-k0 (antibody, human IgG1, kappa)
heavy: not shown
light: B1 light
notes: also called Ho Ab K326_07I
B12: GpH7-B3 variant T335_18N/GpL16-k0 (antibody, human IgG1, kappa)
heavy: not shown
light: B1 light
notes: also called Ho Ab T335_18N
B13: GpH7-B3 variant Y296_16H/GpL16-k0 (antibody, human IgG1, kappa)
heavy: not shown
light: B1 light
notes: also called Ho Ab Y296_16H
B14: GpH7-B3 variant K326_06M/GpL16-k0 (antibody, human IgG1, kappa)
heavy: not shown
light: B1 light
notes: also called Ho Ab K326_06M
B15: GpH7-B3 variant E333_04F/GpL16-k0 (antibody, human IgG1, kappa)
heavy: not shown
light: B1 light
notes: also called Ho Ab E333_04F
B16: GpH7-B3 variant Y296_04F/GpL16-k0 (antibody, human IgG1, kappa)
heavy: not shown
light: B1 light
notes: also called Ho Ab Y296_04F
B17: GpH7-B3 variant G236_03V/GpL16-k0 (antibody, human IgG1, kappa)
heavy: not shown
light: B1 light
notes: also called Ho Ab G236_03V
B18: GpH7-B3 variant L234_15Y/GpL16-k0 (antibody, human IgG1, kappa)
heavy: not shown
light: B1 light
notes: also called Ho Ab L234_15Y
B19: GpH7-B3 variant K326_01G/GpL16-k0 (antibody, human IgG1, kappa)
heavy: not shown
light: B1 light
notes: also called Ho Ab K326_01G
B20: GpH7-B3 variant K326_19Q/GpL16-k0 (antibody, human IgG1, kappa)
heavy: not shown
light: B1 light
notes: also called Ho Ab K326_19Q
B21: GpH7-B3 variant A330_16H/GpL16-k0 (antibody, human IgG1, kappa)
heavy: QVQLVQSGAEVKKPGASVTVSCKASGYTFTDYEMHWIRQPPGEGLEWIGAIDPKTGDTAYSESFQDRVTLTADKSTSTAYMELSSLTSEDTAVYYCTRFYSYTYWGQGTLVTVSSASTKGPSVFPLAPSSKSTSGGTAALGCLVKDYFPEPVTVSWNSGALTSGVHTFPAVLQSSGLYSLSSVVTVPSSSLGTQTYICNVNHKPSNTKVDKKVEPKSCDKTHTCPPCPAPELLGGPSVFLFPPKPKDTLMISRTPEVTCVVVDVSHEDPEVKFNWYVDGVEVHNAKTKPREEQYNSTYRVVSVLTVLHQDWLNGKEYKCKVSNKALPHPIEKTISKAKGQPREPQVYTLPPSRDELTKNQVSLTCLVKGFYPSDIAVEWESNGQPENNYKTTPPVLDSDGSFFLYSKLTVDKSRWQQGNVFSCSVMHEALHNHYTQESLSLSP
light: B1 light
notes: also called Ho Ab A330_16H
B22: GpH7-B3 variant K334_04F/GpL16-k0 (antibody, human IgG1, kappa)
heavy: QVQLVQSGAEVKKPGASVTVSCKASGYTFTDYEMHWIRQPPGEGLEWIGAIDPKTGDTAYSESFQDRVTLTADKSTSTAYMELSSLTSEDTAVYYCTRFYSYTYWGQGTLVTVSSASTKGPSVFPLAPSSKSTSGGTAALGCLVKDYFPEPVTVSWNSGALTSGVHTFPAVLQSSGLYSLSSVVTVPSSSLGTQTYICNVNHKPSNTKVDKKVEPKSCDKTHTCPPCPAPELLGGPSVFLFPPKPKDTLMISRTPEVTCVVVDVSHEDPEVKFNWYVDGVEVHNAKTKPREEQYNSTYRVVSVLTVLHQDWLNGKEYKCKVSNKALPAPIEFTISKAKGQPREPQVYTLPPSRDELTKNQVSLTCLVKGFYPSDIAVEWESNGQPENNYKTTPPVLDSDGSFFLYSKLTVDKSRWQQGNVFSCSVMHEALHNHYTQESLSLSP
light: B1 light
notes: also called Ho Ab K334_04F
B23: GpH7-B3 variant A330_19Q/GpL16-k0 (antibody, human IgG1, kappa)
heavy: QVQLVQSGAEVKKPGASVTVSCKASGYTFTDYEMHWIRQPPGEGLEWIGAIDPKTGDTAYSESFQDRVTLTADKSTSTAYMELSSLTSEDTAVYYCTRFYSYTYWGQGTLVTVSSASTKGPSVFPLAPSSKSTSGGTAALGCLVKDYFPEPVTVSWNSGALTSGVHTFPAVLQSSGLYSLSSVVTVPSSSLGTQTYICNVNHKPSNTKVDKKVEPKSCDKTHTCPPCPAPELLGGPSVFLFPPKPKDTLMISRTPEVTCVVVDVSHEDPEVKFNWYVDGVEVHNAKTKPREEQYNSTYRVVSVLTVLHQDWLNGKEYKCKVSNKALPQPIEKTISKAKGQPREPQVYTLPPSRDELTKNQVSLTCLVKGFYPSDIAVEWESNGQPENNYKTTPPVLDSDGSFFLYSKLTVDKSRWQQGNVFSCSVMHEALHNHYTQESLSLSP
light: B1 light
notes: also called Ho Ab A330_19Q
B24: GpH7-B3 variant T335_20W/GpL16-k0 (antibody, human IgG1, kappa)
heavy: not shown
light: B1 light
notes: also called Ho Ab T335_20W
B25: GpH7-B3 variant I336_08L/GpL16-k0 (antibody, human IgG1, kappa)
heavy: not shown
light: B1 light
notes: also called Ho Ab I336_08L
B26: GpH7-B3 variant I336_03V/GpL16-k0 (antibody, human IgG1, kappa)
heavy: not shown
light: B1 light
notes: also called Ho Ab I336_03V
B27: GpH7-B3 variant K326_10E/GpL16-k0 (antibody, human IgG1, kappa)
heavy: not shown
light: B1 light
notes: also called Ho Ab K326_10E
B28: GpH7-B3 variant S239_10E/GpL16-k0 (antibody, human IgG1, kappa)
heavy: not shown
light: B1 light
notes: also called Ho Ab S239_10E
B29: GpH7-B3 variant H268_19Q/GpL16-k0 (antibody, human IgG1, kappa)
heavy: not shown
light: B1 light
notes: also called Ho Ab H268_19Q
B30: GpH7-B3 variant K334_08L/GpL16-k0 (antibody, human IgG1, kappa)
heavy: not shown
light: B1 light
notes: also called Ho Ab K334_08L
B31: GpH7-B3 variant G236_07I/GpL16-k0 (antibody, human IgG1, kappa)
heavy: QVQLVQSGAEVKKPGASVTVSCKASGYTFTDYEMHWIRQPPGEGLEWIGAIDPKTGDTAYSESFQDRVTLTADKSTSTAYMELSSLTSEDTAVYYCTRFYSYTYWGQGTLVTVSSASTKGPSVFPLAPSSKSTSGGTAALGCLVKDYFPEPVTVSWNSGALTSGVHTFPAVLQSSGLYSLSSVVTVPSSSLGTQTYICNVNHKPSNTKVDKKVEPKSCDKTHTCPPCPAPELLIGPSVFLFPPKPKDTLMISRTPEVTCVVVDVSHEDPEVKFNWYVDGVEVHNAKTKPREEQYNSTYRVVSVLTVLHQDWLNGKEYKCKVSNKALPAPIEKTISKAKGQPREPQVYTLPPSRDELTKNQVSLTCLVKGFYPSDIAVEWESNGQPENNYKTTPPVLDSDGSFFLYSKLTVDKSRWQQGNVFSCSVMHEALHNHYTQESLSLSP
light: B1 light
notes: also called Ho Ab G236_07I
B32: GpH7-B3 variant E333_09D/GpL16-k0 (antibody, human IgG1, kappa)
heavy: not shown
light: B1 light
notes: also called Ho Ab E333_09D
B33: GpH7-B3 variant S267_10E/GpL16-k0 (antibody, human IgG1, kappa)
heavy: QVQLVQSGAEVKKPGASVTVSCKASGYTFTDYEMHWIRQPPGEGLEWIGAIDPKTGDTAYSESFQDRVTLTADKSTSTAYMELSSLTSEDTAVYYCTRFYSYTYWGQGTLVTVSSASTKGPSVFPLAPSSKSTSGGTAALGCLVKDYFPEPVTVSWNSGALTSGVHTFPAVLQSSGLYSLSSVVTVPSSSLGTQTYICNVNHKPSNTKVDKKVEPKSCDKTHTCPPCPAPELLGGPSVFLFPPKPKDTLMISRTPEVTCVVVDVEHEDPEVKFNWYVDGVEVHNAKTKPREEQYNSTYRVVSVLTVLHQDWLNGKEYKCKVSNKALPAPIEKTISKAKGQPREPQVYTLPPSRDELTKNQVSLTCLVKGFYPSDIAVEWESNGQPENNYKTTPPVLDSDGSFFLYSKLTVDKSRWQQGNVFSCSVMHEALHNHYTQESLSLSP
light: B1 light
notes: also called Ho Ab S267_10E
B34: GpH7-B3 variant E333_08L/GpL16-k0 (antibody, human IgG1, kappa)
heavy: not shown
light: B1 light
notes: also called Ho Ab E333_08L
B35: GpH7-B3 variant Y296_09D/GpL16-k0 (antibody, human IgG1, kappa)
heavy: not shown
light: B1 light
notes: also called Ho Ab Y296_09D
B36: GpH7-B3 variant G236_14T/GpL16-k0 (antibody, human IgG1, kappa)
heavy: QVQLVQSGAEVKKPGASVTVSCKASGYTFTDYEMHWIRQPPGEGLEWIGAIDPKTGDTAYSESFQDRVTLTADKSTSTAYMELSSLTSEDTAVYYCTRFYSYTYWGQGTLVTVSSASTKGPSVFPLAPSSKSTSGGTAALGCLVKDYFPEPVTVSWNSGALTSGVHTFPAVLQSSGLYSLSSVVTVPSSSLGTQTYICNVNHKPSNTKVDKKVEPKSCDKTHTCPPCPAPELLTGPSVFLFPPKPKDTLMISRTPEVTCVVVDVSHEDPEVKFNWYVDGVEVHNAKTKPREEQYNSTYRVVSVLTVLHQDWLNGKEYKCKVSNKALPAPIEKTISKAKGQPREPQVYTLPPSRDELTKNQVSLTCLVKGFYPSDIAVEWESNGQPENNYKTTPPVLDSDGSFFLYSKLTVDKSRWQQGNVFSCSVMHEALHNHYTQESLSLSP
light: B1 light
notes: also called Ho Ab G236_14T
B37: GpH7-B3 variant S337_20W/GpL16-k0 (antibody, human IgG1, kappa)
heavy: not shown
light: B1 light
notes: also called Ho Ab S337_20W
B38: GpH7-B3 variant I336_18N/GpL16-k0 (antibody, human IgG1, kappa)
heavy: not shown
light: B1 light
notes: also called Ho Ab I336_18N
B39: GpH7-B3 variant G236_04F/GpL16-k0 (antibody, human IgG1, kappa)
heavy: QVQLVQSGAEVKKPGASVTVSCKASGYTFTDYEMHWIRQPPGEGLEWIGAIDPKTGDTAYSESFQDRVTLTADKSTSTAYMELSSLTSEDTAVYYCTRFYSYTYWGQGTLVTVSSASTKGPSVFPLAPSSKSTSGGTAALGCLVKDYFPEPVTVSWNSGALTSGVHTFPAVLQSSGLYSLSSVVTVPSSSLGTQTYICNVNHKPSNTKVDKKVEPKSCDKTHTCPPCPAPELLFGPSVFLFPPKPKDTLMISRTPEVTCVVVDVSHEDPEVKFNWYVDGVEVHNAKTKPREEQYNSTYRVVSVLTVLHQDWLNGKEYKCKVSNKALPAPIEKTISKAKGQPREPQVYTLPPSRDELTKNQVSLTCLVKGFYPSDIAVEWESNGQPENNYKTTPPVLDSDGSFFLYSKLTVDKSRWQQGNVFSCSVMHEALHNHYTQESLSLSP
light: B1 light
notes: also called Ho Ab G236_04F
B40: GpH7-B3 variant E333_14T/GpL16-k0 (antibody, human IgG1, kappa)
heavy: not shown
light: B1 light
notes: also called Ho Ab E333_14T
B41: GpH7-B3 variant H268_02A/GpL16-k0 (antibody, human IgG1, kappa)
heavy: not shown
light: B1 light
notes: also called Ho Ab H268_02A
B42: GpH7-B3 variant S267_09D/GpL16-k0 (antibody, human IgG1, kappa)
heavy: not shown
light: B1 light
notes: also called Ho Ab S267_09D
B43: GpH7-B3 variant E333_13S/GpL16-k0 (antibody, human IgG1, kappa)
heavy: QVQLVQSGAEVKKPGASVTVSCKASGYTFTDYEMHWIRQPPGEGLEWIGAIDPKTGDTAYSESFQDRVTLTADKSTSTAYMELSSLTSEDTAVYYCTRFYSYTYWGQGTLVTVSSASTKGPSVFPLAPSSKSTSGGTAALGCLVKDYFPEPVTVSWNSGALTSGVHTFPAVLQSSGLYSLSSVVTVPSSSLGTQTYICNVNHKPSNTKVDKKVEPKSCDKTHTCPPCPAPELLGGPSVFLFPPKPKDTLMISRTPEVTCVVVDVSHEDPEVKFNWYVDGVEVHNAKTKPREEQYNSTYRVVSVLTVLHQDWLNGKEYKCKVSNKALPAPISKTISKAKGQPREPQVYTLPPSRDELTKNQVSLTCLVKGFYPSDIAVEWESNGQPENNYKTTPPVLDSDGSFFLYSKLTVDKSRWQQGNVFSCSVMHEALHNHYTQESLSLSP
light: B1 light
notes: also called Ho Ab E333_13S
B44: GpH7-B3 variant K326_12R/GpL16-k0 (antibody, human IgG1, kappa)
heavy: not shown
light: B1 light
notes: also called Ho Ab K326_12R
B45: GpH7-B3 variant L234_04F/GpL16-k0 (antibody, human IgG1, kappa)
heavy: not shown
light: B1 light
notes: also called Ho Ab L234_04F
B46: GpH7-B3 variant G236_15Y/GpL16-k0 (antibody, human IgG1, kappa)
heavy: not shown
light: B1 light
notes: also called Ho Ab G236_15Y
B47: GpH7-B3 variant S239_08L/GpL16-k0 (antibody, human IgG1, kappa)
heavy: not shown
light: B1 light
notes: also called Ho Ab S239_08L
B48: GpH7-A5/GpH7-B3 variant Y300_19Q/GpL16-k0 (He Ab) (antibody, human IgG1, kappa)
heavy 1: not shown
heavy 2: not shown
light: B1 light
notes: Anti-glypican-3 IgG1; mutation only in the GpH7-B3-derived H chain; also called Y300Q heterodimerized antibody
B49: GpH7-A5/GpH7-B3 variant T335_04F/GpL16-k0 (He Ab) (antibody, human IgG1, kappa)
heavy 1: not shown
heavy 2: not shown
light: B1 light
notes: Anti-glypican-3 IgG1; mutation only in the GpH7-B3-derived H chain; also called T335F heterodimerized antibody
B50: GpH7-A5/GpH7-B3 variant T335_08L/GpL16-k0 (He Ab) (antibody, human IgG1, kappa)
heavy 1: not shown
heavy 2: not shown
light: B1 light
notes: Anti-glypican-3 IgG1; mutation only in the GpH7-B3-derived H chain; also called T335L heterodimerized antibody
B51: GpH7-A5/GpH7-B3 variant T335_09D/GpL16-k0 (He Ab) (antibody, human IgG1, kappa)
heavy 1: not shown
heavy 2: not shown
light: B1 light
notes: Anti-glypican-3 IgG1; mutation only in the GpH7-B3-derived H chain; also called T335D heterodimerized antibody
B52: GpH7-A5/GpH7-B3 variant A327_12R/GpL16-k0 (antibody, human IgG1, kappa)
heavy 1: not shown
heavy 2: not shown
light: B1 light
notes: He Ab: mutation in one H chain only; also called He Ab

Columns and labels:
FcγRIIa H = FcγRIIa H (human, UniProt P12318 34-217); test: SPR Biacore, captured antibody, FcγR analyte; vs GpH7-B3/GpL16-k0 = 100
[1] = target: T1, human FcγRIIb extracellular domain with …; test: SPR (Biacore T100), antibody captured on antigen peptide chip, FcγRIIb as analyte; relative binding
Description: (§1) Analysis of interaction between objective antibody and the FcγR was carried out using Biacore T100 (GE Healthcare). HBS-EP+ (GE Healthcare) was used as the running buffer, and the measurement temperature was set to 25° C. Chips produced by immobilizing the antigen peptide by the amine coupling method to a Series S Sencor Chip CM5 (GE Healthcare), or alternatively, chips produced by allowing preliminarily biotinylated antigen peptides to interact with and immobilize onto a Series S Sensor Chip SA (certified) (GE Healthcare) were used. Antibodies of interest were captured onto an antigen peptide-immobilized chip, and allowed to interact to each FcγR diluted with running buffer. To regenerate and repeatedly use the chip, the antibodies captured on the chip were washed off by reacting 10 mM glycine-HCl, pH 1.5.

FcγRIa = target: T2, FcγRIa (human, UniProt P12314 16-292); test: SPR (Biacore), captured antibody, FcγR as analyte, relative binding
T2 construct: extracellular domain; Soluble extracellular domain with C-terminal His tag, used as analyte; also called FcgRI; CD64; not shown: His tag at the C terminus
Description: The heterodimerized antibodies He Abs in which one of the H chains was introduced with an alteration were assayed for their binding activities to each activating FcγR and inhibitory FcγR according to the method described in Example 4. […] The activating FcγRs in FIGS. 26, 27, 28, and 29 are FcγRIa, FcγRIIa (R), FcγRIIa (H), and FcγRIIIa, respectively.
as §1

FcγRIIa H, sequence (P12318 34-217): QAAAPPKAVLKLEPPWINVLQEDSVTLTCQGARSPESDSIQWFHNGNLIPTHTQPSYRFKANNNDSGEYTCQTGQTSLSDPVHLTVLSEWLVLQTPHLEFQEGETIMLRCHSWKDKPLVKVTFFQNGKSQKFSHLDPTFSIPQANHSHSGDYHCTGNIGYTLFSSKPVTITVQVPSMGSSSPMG
T2 sequence (P12314 16-292): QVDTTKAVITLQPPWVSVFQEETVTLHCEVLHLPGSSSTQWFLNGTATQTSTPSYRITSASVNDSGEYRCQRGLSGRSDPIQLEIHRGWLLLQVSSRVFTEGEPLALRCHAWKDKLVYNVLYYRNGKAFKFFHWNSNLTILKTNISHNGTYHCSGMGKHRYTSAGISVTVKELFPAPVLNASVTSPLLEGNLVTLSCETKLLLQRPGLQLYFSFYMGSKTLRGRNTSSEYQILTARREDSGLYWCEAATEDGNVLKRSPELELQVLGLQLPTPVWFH

Binder | Ho/Con_2aH (FcγRIIa H) | also measured
B1 | 90.1 % of control | –
B2 | 93.1 % of control | –
B3 | 94.9 % of control | –
B4 | 100 % of control | –
B5 | 91.5 % of control | –
B6 | 110 % of control | –
B7 | 93.4 % of control | –
B8 | 97.2 % of control | –
B9 | 94 % of control | –
B10 | 55.3 % of control | –
B11 | 78.1 % of control | –
B12 | 98 % of control | –
B13 | 85.7 % of control | –
B14 | 101 % of control | –
B15 | 93.6 % of control | –
B16 | 95 % of control | –
B17 | 111 % of control | –
B18 | 43.8 % of control | –
B19 | 98.2 % of control | –
B20 | 100 % of control | –
B21 | 101 % of control | –
B22 | 103 % of control | –
B23 | 99.2 % of control | –
B24 | 98.7 % of control | –
B25 | 101 % of control | –
B26 | 90.4 % of control | –

Binder | Ho/Con_2aH (FcγRIIa H) | also measured
B27 | 101 % of control | –
B28 | 91.4 % of control | –
B29 | 102 % of control | –
B30 | 103 % of control | –
B31 | 101 % of control | –
B32 | 103 % of control | –
B33 | 98.5 % of control | –
B34 | 96.5 % of control | –
B35 | 99.9 % of control | –
B36 | 94.2 % of control | –
B37 | 96.6 % of control | –
B38 | 94.3 % of control | –
B39 | 63.2 % of control | –
B40 | 90.4 % of control | –
B41 | 111 % of control | –
B42 | 91.5 % of control | –
B43 | 94.6 % of control | –
B44 | 98.8 % of control | –
B45 | 54.2 % of control | –
B46 | 80.4 % of control | –
B47 | 87 % of control | –
B48 | – | He/Con_2b [1]: 108 % of control GpH7-A5/GpH7-B3/GpL16-k0 (=100)
B49 | – | He/Con_2b [1]: 103 % of control GpH7-A5/GpH7-B3/GpL16-k0 (=100)
B50 | – | He/Con_2b [1]: 104 % of control GpH7-A5/GpH7-B3/GpL16-k0 (=100)
B51 | – | He/Con_2b [1]: 108 % of control GpH7-A5/GpH7-B3/GpL16-k0 (=100)
B52 | – | He/Con_1a (FcγRIa): 86.7 % of GpH7-A5/GpH7-B3/GpL16-k0

From US20150344570A1 (published 2015)
